Experiments:
Conditions in all cases: remark: other sources report otherwise
[1] = target: SARS-CoV Spike trimer (Table A) (SARS-CoV), P59594; assay: ELISA, purified IgG
[2] = target: SARS-CoV-2 RBD (Table A) (SARS-CoV-2), P0DTC2; assay: ELISA, purified IgG
[3] = target: SARS-CoV-2 S receptor-binding domain (SRBD), residues 319-541 (SARS-CoV-2), P0DTC2; assay: ELISA on coated antigen

B1: COV2-2952 (antibody, V domains shown)
VH: EVQLVESGGGLVQPGGSLRLSCAASGLTVRSNYMTWVRQTPGKGLEWVSVIYSGGSTFYADSVKGRFTISRDNSKNTVYLQMNSLRAEDTAVYYCARDLVTYGLDVWGQGTTVTVSS
VL: DIQLTQSPSFLSASVGDRVTITCRASQGISNYLAWYQQKPGTAPNLLIYAASTLQSGVPSRFSGSGSGTEFTLTISSLQPEDFATYYCQLLNSHPLTFGQGTRLEIK
Which ELISA OD 450 nm [1] does the source give for B1 here?
The ELISA OD 450 nm was 0.15 OD 450 nm.

What about the ELISA OD 450 nm [2] of the same binder?
The ELISA OD 450 nm was 3.55 OD 450 nm.

B2: COV2-2165 (antibody, V domains shown)
VH: B1 VH
VL: B1 VL
Which EC50 [3] does the source give for B2 here?
Its EC50 is 0.6 ng/mL.

And the ELISA OD 450 nm [1]?
The ELISA OD 450 nm was 0.17 OD 450 nm.

What about the ELISA OD 450 nm [2] of the same binder?
Its ELISA OD 450 nm is 4.2 OD 450 nm.

B3: COV2-2391 (antibody, V domains shown)
VH: QVQLVQSGAEVKKPGASVKVSCKASGYTFGSFDINWVRQATGQGLEWMGRMNSNSGNTAYAQKFQGRVTMTRDTSTNTAYMELSSLRSEDTAMYYCARMRSGWPTHGRPDDFWGRGTLVTVSS
VL: QSVLTQAPSASGTPGQRVTISCSGSNSNIGSYTINWYQQLPGTAPKLLIYGNDQRTSGVPDRFSGSKFGTSASLAISGLQSEDENNYYCAVWDDSLNGLVFGGGTKLTVL
What does the source list for B3?
ELISA OD 450 nm [1]: 0.1 OD 450 nm; ELISA OD 450 nm [2]: 3.65 OD 450 nm

B4: COV2-2096 (antibody, V domains shown)
VH: B3 VH
VL: B3 VL
What does the source list for B4?
EC50 [3]: 1 ng/mL; ELISA OD 450 nm [1]: 0.11 OD 450 nm; ELISA OD 450 nm [2]: 4.3 OD 450 nm

B5: COV2-2130 (antibody, V domains shown)
VH: EVQLVESGGGLVKPGGSLRLSCAASGFTFRDVWMSWVRQAPGKGLEWVGRIKSKIDGGTTDYAAPVKGRFTISRDDSKNTLYLQMNSLKTEDTAVYYCTTAGSYYYDTVGPGLPEGKFDYWGQGTLVTVSS
VL: not shown
With B5 as the binder, how does the ELISA OD 450 nm [1] read?
Its ELISA OD 450 nm is 0.1 OD 450 nm.

Reference: US20210300999A1
